The values that follow come from publication PMC4462998, “Cell age dependent concentration of Escherichia coli divisome proteins analyzed with ImageJ and ObjectJ” (Frontiers in Microbiology, 2015).

The experiment concerns the target T1, FtsQ (Escherichia coli, UniProt P06136 1-276).
T1 construct: FtsQ of Escherichia coli
In words: not stated; unpublished results (Luirink and den Blaauwen); method not given.

T1 sequence (P06136 whole entry): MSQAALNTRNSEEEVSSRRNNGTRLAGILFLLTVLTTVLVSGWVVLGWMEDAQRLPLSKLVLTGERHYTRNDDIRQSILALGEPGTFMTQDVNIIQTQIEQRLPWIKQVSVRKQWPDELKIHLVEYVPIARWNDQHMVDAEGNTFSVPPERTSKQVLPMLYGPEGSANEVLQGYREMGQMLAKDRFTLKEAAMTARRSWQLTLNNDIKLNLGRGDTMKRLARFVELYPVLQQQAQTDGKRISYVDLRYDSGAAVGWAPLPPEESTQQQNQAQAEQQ

B1: FtsB (natural protein, Escherichia coli, UniProt P0A6S5 1-103, looked up)
chain: MGKLTLLLLAILVWLQYSLWFGKNGIHDYTRVNDDVAAQQATNAKLKARNDQLFAEIDDLNGGQEALEERARNELSMTRPGETFYRLVPDASKRAQSAGQNNR
notes: FtsB of Escherichia coli
As to B1, the “stoichiometry N” value was 1.
